Changes are numbered by the printed parent chain.
Columns and labels:
[1] = molecular target: SARS-CoV-2 S of the Ancestral pseudovirus (pSARS-COV2-Strunc) (SARS-CoV-2 (ancestral), UniProt P0DTC2 14-1254); assay: cell-based or functional assay
[2] = molecular target: C-terminally truncated SARS-CoV-2 S protein (pSARS-CoV2-Strunc), ancestral (SARS-CoV-2, UniProt P0DTC2 14-1273); assay: cell-based or functional assay

B1: rbd.106 (antibody, V domains shown)
VH: EVQLVQSGAEVKKPGESLKISCKGSGYSFYNHWIAWVRQMPGKGLEWMGIIYPYDSDTRYSPSFQGQVTISADKSITTAYLQWSSLKASDTAIYYCARRSDYGEFGGHSDYWGQGTLVTVSS
VL: not shown
[1]
  Ancestral Pseudovirus IC50: 0.0674 µg/mL

B2: rbd.110 (antibody, V domains shown)
VH: EVQLVESGGGVVQPGRSLRLSCVASGFTFSRYGMHWVRQAPGKGLEWVATILYDGSDQYYAESVKGRFTISRDNSKNTLYLQMNSLREADTAVYYCAKTSYGYAYNFRLYFDYWGQGTLVTVSS
VL: SYELTQPPSVSVAPGKTATITCGGNNIGSAGVHWYQQRPGQAPVLVVYDDSDRPSGIPERFSGSTSGNTATLTISRVEAGDEADYYCQVWDSNSAPVIFGGGTKLTVL
[1]
  Ancestral Pseudovirus IC50: 4.25 µg/mL

B3: hr2.019 (antibody, V domains shown)
VH: EVQLVESGGGLVKPGGSLRLSCAASGSSVIDVWMNWVRQAPGKGLEWVGRIKTKASGAATDYGAPVKGRFTISRDDSKNLSYLQMNSLRAEDTGIYYCTTSPLPNFDYWGRGTLVTVSS
VL: DIVMTQSPDFLAVSLGETATINCRSSQSVFYFANNKNYLAWYQQKPGQPPKLLIYWASKRESGVPDRFSGSGSGTDFTLTISSLQAEDVATYYCQQYSSPAITFGPGTKVDIK
[2]
  Ancestral Pseudovirus IC50: 1.22 µg/mL

B4: rbd.117 (antibody, V domains shown)
VH: EVQLVESGGGLVQPGGSLRLSCAASGFTFSRYAMSWVRQAPGKGLEWVSGLSGSGDSTYYADSVKGRFTISRDNSKKTLNLQMNSLRPEDTAVYYCAKGSRFGIDYFDCWGQGTLVTVSS
VL: DIQMTQSPSTLSASVGDRVTITCRASQSISSWLAWYQLKPGKAPKLLIYDASSLESGVPSRFSGSGSGTEFTLTISSLQPDDFATYYCQQYNTYPFSFGPGTKVDIK
[1]
  Ancestral Pseudovirus IC50: 0.203 µg/mL

B5: rbd.123 (antibody, V domains shown)
VH: QVQLVQSGAEVKKPGSSVKVSCKASGGAFRMYAISWVRQAPGQGLEWMGGIIPISGTATYTQNFQGRVTITVDRSTSTAYMELSSLRSDDTALYYCARGPRTGYDYFDFWGQGTLVTVSS
VL: B4 VL with L38Q, K45N, N92K, T93S, F96Y, S97T, P100Q, V104L, D105E
[1]
  Ancestral Pseudovirus IC50: 1.21 µg/mL

B6: sd1.034 (antibody, V domains shown)
VH: EVQLVESGGGVVQPGRSLRLSCAASGFSFSNYGMHWVRQAPGKGLEWVAVISYDGSHKSFADSVKGRFTISRDNSKNTLNLQMNSLRREDTAVYYCATDQGGSLGYWGQGTLVTVSS
VL: QSALTQPASVSGSPGQSITISCTGTSGDVGGYNYVSWYQHHPGKAPKLMIYDVSNRPSGVSNRFSGSKSGNTASLTISGLQAEDEADYYCSSYTSTSTSWVFGGGTKLTVL
[1]
  Ancestral Pseudovirus IC50: 0.387 µg/mL

B7: sd1.127 (antibody, V domains shown)
VH: EVQLVESGGALVKPGGSLTLSCVASGFTFSHAWMTWVRQAPGKGLEWVGRIKTKTEGGTIDYAAPLRGRFTISRDDSKNTLYLRMNSLKIEDTAKYYCTTHSSPDYWGQGTLVTVSS
VL: DIQMTQSPSSLSASIGDRVTITCRASQGIGNSLLWYQQKRGKVPKLLIYAASTLQSGVPSRFSGSGSGTDFTLTISSLQPEDVATYYCQRYNSAPLTFGGGTKVEIK
[1]
  Ancestral Pseudovirus IC50: 6.68 µg/mL

B8: sd1.108 (antibody, V domains shown)
VH: QVQLVQSGAEVKKPGASVKVSCKASGYTFTSYYIHWVRQTPGQGLEWMGIINPRGGSTSYPQKFQGRVSMTRDTSTSTVFMELSSLRSDDTAVYYCAREHREDTAMDNQPSDSWGQGTLVTVSS
VL: DIVMTQSPDSLSVSLGERATINCKSSRSVFYSSNNKSYLAWYQQKPGQPPKLLIYWASTRESGVRDRFSGSGSGTDFTLTISSLQAEDVAVYYCQQYYNTPYTFGQGTKLEIK
[1]
  Ancestral Pseudovirus IC50: 0.446 µg/mL

B9: rbd.113 (antibody, V domains shown)
VH: EVQLVQSGAAVKKPGESLKISCKGSGYSFTNYWIGWVRQMPGKGLELMGIIYVGDSDTRYSPSFQGQVTISADKSITTAYLQWSSLKASDSAIYYCARQRCGGDCPFDLWGRGTLVTVSS
VL: DIQMTQSPSTLSASVGDRVTITCRASQSINRWLAWYQQKPGKAPELLIYDASDLESGVPSRFSGSGSGTEFTLTISSLQPDDFATYYCQQYNSYWTFGQGTKVEIK
[1]
  Ancestral Pseudovirus IC50: 0.373 µg/mL

B10: fp.007 (antibody, V domains shown)
VH: EVQLVESGGGLVKPGGSLRLSCAGTGFIFSDAWMTWVRQAPGKGLEWVGRIKSKADGGTTDYAAPVKGRFTISRDDSKNTLYLEINSLKTEDTAVYYCTTGRSRYCIGAVCYYFDHWGQGTLVTVSS
VL: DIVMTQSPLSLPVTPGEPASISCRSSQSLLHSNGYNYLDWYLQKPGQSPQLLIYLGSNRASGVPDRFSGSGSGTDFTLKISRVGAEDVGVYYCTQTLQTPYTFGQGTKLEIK
[2]
  Ancestral Pseudovirus IC50: 11.1 µg/mL
  Ancestral Pseudovirus IC50 (on cells with [not given]): 3.98 µg/mL

B11: hr2.090 (antibody, V domains shown)
VH: EVQLLESGGGLVQPGGSLRLSCAASGVTFSRYAMSWVRQAPGKGLEWVSTISGGGGGTYYADSVKGRFTISRDNSKNTLYLQMNSLRAEDTAVYYCATLLTVPGPYYFEYWGQGTLVTVSS
VL: EIVLTQSPGTLSLSPGERATLSCRASQSVSSSYLAWYQQKPGQAPRLLIYGASSRATGIPDRFSGSGSGTDFTLTISRLESEDFAVYYCQHSRFTFGPGTRVDIK
[2]
  Ancestral Pseudovirus IC50: 1.02 µg/mL

B12: rbd.142 (antibody, V domains shown)
VH: EVQLVESGGGVVQPGRSLRLSCVASGLTFSRYGMHWVRQAPGKGLEWVAVTTYDGSNKDYADSVKGRFTISRDNSKNTLYLQMNSLRAEDTAVYYCAKVGGGEYCSGGSCYGSYGMDVWGQGTTVTVSS
VL: not shown
[1]
  Ancestral Pseudovirus IC50: 5.09 µg/mL

B13: rbd.112 (antibody, V domains shown)
VH: EVQLVQSGAEVKKSGESLKISCKSSGYSFTTYWIAWVRQMPGKGLEWMGIIYPGHSDARYSPSFQGHVTISADKSISTAYLQWRSLKASDTAIYYCARLSYYDVSNFYYYDSYWFDSWGLGTLVTVSS
VL: QSVLTQPPSVSGAPGQRVTISCTGSSSNLGAGYDVHWYQQLPGTAPKLLIYANSNRPSGVPDRFSGSKSGTSASLAMTGLQAEDEADYYCQSYDSSLGGYVFGFGTKVTVL
[1]
  Ancestral Pseudovirus IC50: 0.0867 µg/mL

B14: rbd.143 (antibody, V domains shown)
VH: EVQLVESGGGLVQPGGSLRLSCSASGFTFRRYAMHWVRQAPGKGLQHVSAISSDGDNTHYADSVKGRFTISRDNFKNTLHLQMSSLRPEDTAVYYCVKDPFSNFHYFDCWGQGILVTVSS
VL: not shown
[1]
  Ancestral Pseudovirus IC50: 0.28 µg/mL

B15: rbd.141 (antibody, V domains shown)
VH: EVQLVESGGGVVQPGRSLRLSCAASGFTFSSYGMHWVRQAPGKGLEWVAVISYDGKIKYYADSVEGRFTISRDNSKNALYLQMNSLRAEDTAVYYCAKYGIVTSFGVVPPYDMDVWGQGTTVTVSS
VL: DVVMTQSPLSLPVTLGQPASISCRSSQSLVYSDGNTFLNWFQQRPGQSPRRLIYKVSDRDSGVPDRFSGSGSGTDFTLKISRVEAEDVGVYYCMQGTNWPPTFGQGTKVEIK
[1]
  Ancestral Pseudovirus IC50: 0.164 µg/mL

B16: sd1.040 (antibody, V domains shown)
VH: QVQLVQSGAEVKKPGASVKVSCKASGYTFTSFYIHWVRQAPGQGLEWMGIIDPSGGSTSYPQKFQGRVTMTRDTSTSTVYMDLSSLRSEDTAVYYCTRDGSAGDNSWFDPWGQGTLVTVSS
VL: not shown
[1]
  Ancestral Pseudovirus IC50: 0.245 µg/mL

B17: rbd.049 (antibody, V domains shown)
VH: QLQLQESGPGLVKPSETLSLSCTVSGGSISSKSDYWGWIRQSPGKGLEWIGSIYYTGTTYYNPSLKSRVSISLDKSKNQFSLKLNSLTAADTALYYCARDPSIAVATTVYFDAWGQGTLVTVSS
VL: EIVLTQSPGTLSLSPGERATLSCRASESVKSNYLAWYQQKLGQPPRLLIFGASTRATGIPDRFSGSGSGTDFTLTISRLEPEDFAVYYCQQYHTSPPRYTFGQGTKLEIK
[1]
  Ancestral Pseudovirus IC50: 3.71 µg/mL
